Molecular target: glutathione S-transferase (GST)
Test: cross-linking; GST crosslinked in a crosslinker titration with UCCL or DSSO, two molar ratios of each reagent; crosslinked dimer seen (Figure 2c)

- stoichiometry N: 2
Substance: glutathione S-transferase (GST) (enzyme)
